# From patent US20090208538A1 (ROCKEFELLER UNIVERSITY, published 2009)
# What was measured:
# HLA-A*0101 [1] = target: HLA-A*0101 (human); assay: iTopia affinity
# HLA-A*0101 [2] = target: HLA-A*0101 (human); assay: iTopia off-rate
# HLA-A*2402 [3] = target: HLA-A*2402 (human); assay: iTopia affinity;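 further: peptide binding to HLA-A*2402 measured in iTopia kit format across eight serial peptide dilutions, ED50 derived from the resulting titration curve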
# HLA-A*2402 [4] = target: HLA-A*2402 (human); assay: iTopia off-rate
# HLA-A*1501 [5] = target: T1, HLA-A*1501 (human); assay: iTopia affinity
# T1 construct: possibly meant as HLA-B*1501
# HLA-A*0101 [6] = target: HLA-A*0101 (human); assay: iTopia net score
# HLA-A*2402 [7] = target: HLA-A*2402 (human); assay: iTopia net score;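 further: iScore from iTopia software combining peptide binding, affinity over a dilution series and off-rate after warming to body temperature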
# HLA-A*1501 [8] = target: T1, HLA-A*1501; assay: iTopia net score
# HLA-A*0201 [9] = target: T2, HLA-A*0201 (human); assay: iTopia binding;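 further: each peptide tested for binding to HLA-A2 molecules immobilized on plates, using a commercial screening kit run per its supplied protocol and reagents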
# T2 construct: also called HLA-A2.1; HLA A2.1
# HLA-A*0201 [10] = target: T2, HLA-A*0201; assay: iTopia affinity;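 further: peptide affinity for plate-bound HLA-A2 molecules (iTopia system), with ED50 derived from an eight-point serial peptide dilution series run under binding assay conditions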
# HLA-A*0201 [11] = target: T2, HLA-A*0201; assay: iTopia off-rate;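 further: Half-life of peptide complexes with plate-bound HLA-A2, peptides loaded 18 h at 21 C, washed, then held at 37 C over several time points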
# HLA-B*0801 [12] = target: HLA-B*0801 (human); assay: iTopia affinity
# HLA-A*0201 [13] = target: T2, HLA-A*0201; assay: iTopia net score;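 further: combined score from peptide binding, ED₅₀ and half-life of peptide complexes with plate-bound HLA-A2 molecules, computed by a proprietary formula in iTopia software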
# HLA-B*0801 [14] = target: HLA-B*0801 (human); assay: iTopia net score
# HLA-A*1101 [15] = target: HLA-A*1101 (human); assay: iTopia affinity;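 further: affinity derived from a titration of eight serial peptide dilutions, each run under the same conditions as the binding screen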
# HLA-A*1101 [16] = target: HLA-A*1101 (human); assay: iTopia off-rate
# HLA-A*1101 [17] = target: HLA-A*1101 (human); assay: iTopia net score
# HLA-B*0702 [18] = target: HLA-B*0702 (human); assay: iTopia affinity
# HLA-B*0702 [19] = target: HLA-B*0702 (human); assay: iTopia off-rate
# HLA-B*0702 [20] = target: HLA-B*0702 (human); assay: iTopia net score
# [21] = target: HLA-A2.1/cdr2(290-298) complex (human); assay: cell-based or functional assay
# HLA-A*0301 [22] = target: HLA-A*0301 (human); assay: iTopia affinity
# HLA-A*0301 [23] = target: HLA-A*0301 (human); assay: iTopia off-rate
# HLA-A*0301 [24] = target: HLA-A*0301 (human); assay: iTopia net score
binder,measurement,setting,value
SFACLKELY [cdr2 157-165 SFACLKELY],ED50,HLA-A*0101 [1],6.9 µM
same,t1/2,HLA-A*0101 [2],0.97
same,ED50,HLA-A*2402 [3],1.4 µM
same,t1/2,HLA-A*2402 [4],0.5
same,ED50,HLA-A*1501 [5],5.3 µM
same,iScore,HLA-A*0101 [6],0.137
same,iScore,HLA-A*2402 [7],0.157
same,iScore,HLA-A*1501 [8],0.132
ALKVKYEEL [cdr2 355-363 ALKVKYEEL],binding vs positive control,HLA-A*0201 [9],> 30%
same,ED50,HLA-A*0201 [10],7 µM
same,t1/2,HLA-A*0201 [11],0.8
same,ED50,HLA-A*2402 [3],10 µM
same,t1/2,HLA-A*2402 [4],0.38
same,ED50,HLA-B*0801 [12],84 µM
same,iScore,HLA-A*0201 [13],0.107
same,iScore,HLA-A*2402 [7],0.076
same,iScore,HLA-B*0801 [14],0.099
SSPTTPPEY [cdr2 414-422 SSPTTPPEY],ED50,HLA-A*0101 [1],130 µM
same,t1/2,HLA-A*0101 [2],0.96
same,iScore,HLA-A*0101 [6],0.05
KQRGISLLH [cdr2 339-347 KQRGISLLH],ED50,HLA-A*1101 [15],22 µM
same,t1/2,HLA-A*1101 [16],0.44
same,ED50,HLA-A*2402 [3],6.9 µM
same,t1/2,HLA-A*2402 [4],1.52
same,ED50,HLA-A*1501 [5],22 µM
same,iScore,HLA-A*1101 [17],0.089
same,iScore,HLA-A*2402 [7],0.184
same,iScore,HLA-A*1501 [8],0.163
AVQTSRAAA [cdr2 378-386 AVQTSRAAA],ED50,HLA-B*0702 [18],11 µM
same,t1/2,HLA-B*0702 [19],0.9
same,ED50,HLA-A*1501 [5],51 µM
same,iScore,HLA-B*0702 [20],0.153
same,iScore,HLA-A*1501 [8],0.062
"cdr2-specific murine T cell receptor of CTL clones 11 and 12 (TCR, V domains shown) V domain 1: QQQVRQSPQSLTVWEGGTTVLTCSYEDSTFNYFPWYQQFPGEGPALLISILSVSDKKEDGRFTTFFNKREKKLSLHIIDSQPGDSATYFCAASGASGGSNAKLTFGKGTKLSVKS V domain 2: DSGVVQSPRHIIKEKGGRSVLTCIPISGHSNVVWYQQTLGKELKFLIQHYEKVERDKGFLPSRFSVQQFDDYHSEMNMSALELEDSAMYFCASSLGGWAEQFFGPGTRLTVLE","IFN-γ release, ELISA",[21],20 fold above background
DTQYSALKV [cdr2 350-358 DTQYSALKV],ED50,HLA-A*0101 [1],49 µM
same,t1/2,HLA-A*0101 [2],0.4
same,iScore,HLA-A*0101 [6],0.04
EHLKKTVTM [cdr2 196-204 EHLKKTVTM],ED50,HLA-B*0801 [12],130 µM
same,iScore,HLA-B*0801 [14],0.065
TGAYRARAL [cdr2 240-248 TGAYRARAL],ED50,HLA-B*0702 [18],5.7 µM
same,t1/2,HLA-B*0702 [19],0.22
same,ED50,HLA-B*0801 [12],18 µM
same,iScore,HLA-B*0702 [20],0.082
same,iScore,HLA-B*0801 [14],0.085
AVKQRGISL [cdr2 337-345 AVKQRGISL],ED50,HLA-A*2402 [3],20 µM
same,t1/2,HLA-A*2402 [4],1.6
same,ED50,HLA-B*0702 [18],2.4 µM
same,t1/2,HLA-B*0702 [19],1.18
same,ED50,HLA-B*0801 [12],22 µM
same,ED50,HLA-A*1501 [5],15 µM
same,iScore,HLA-A*2402 [7],0.13
same,iScore,HLA-B*0702 [20],0.293
same,iScore,HLA-B*0801 [14],0.139
same,iScore,HLA-A*1501 [8],0.16
ASQQKILSL [cdr2 107-113 ASQQKILSL],binding vs positive control,HLA-A*0201 [9],> 30%
same,ED50,HLA-A*0201 [10],8 µM
same,t1/2,HLA-A*0201 [11],3.4
same,ED50,HLA-A*1101 [15],20 µM
same,t1/2,HLA-A*1101 [16],2.45
same,ED50,HLA-A*1501 [5],24 µM
same,iScore,HLA-A*0201 [13],0.174
same,iScore,HLA-A*1101 [17],0.19
same,iScore,HLA-A*1501 [8],0.092
TQYSALKVK [cdr2 351-359 TQYSALKVK],ED50,HLA-A*0301 [22],7.5 µM
same,t1/2,HLA-A*0301 [23],1.48
same,ED50,HLA-A*1101 [15],2.8 µM
same,t1/2,HLA-A*1101 [16],0.76
same,ED50,HLA-A*1501 [5],7.6 µM
same,iScore,HLA-A*0301 [24],0.27
same,iScore,HLA-A*1101 [17],0.276
same,iScore,HLA-A*1501 [8],0.181
AYRARALEL [cdr2 242-250 AYRARALEL],ED50,HLA-A*2402 [3],0.16 µM
same,t1/2,HLA-A*2402 [4],1.11
same,ED50,HLA-B*0702 [18],23 µM
same,t1/2,HLA-B*0702 [19],0.15
same,ED50,HLA-B*0801 [12],26 µM
same,iScore,HLA-A*2402 [7],0.611
same,iScore,HLA-B*0702 [20],0.033
same,iScore,HLA-B*0801 [14],0.066
LLHEVDTQY [cdr2 345-353 LLHEVDTQY],binding vs positive control,HLA-A*0201 [9],> 30%
same,ED50,HLA-A*0201 [10],7 µM
same,t1/2,HLA-A*0201 [11],3.5
same,ED50,HLA-A*1501 [5],39 µM
same,iScore,HLA-A*0201 [13],0.204
same,iScore,HLA-A*1501 [8],0.121
EIDEQRTKY [cdr2 439-447 EIDEQRTKY],ED50,HLA-A*0101 [1],31 µM
same,t1/2,HLA-A*0101 [2],1.26
same,iScore,HLA-A*0101 [6],0.107
VYDHVFAEK [cdr2 172-180 VYDHVFAEK],ED50,HLA-A*0301 [22],25 µM
same,t1/2,HLA-A*0301 [23],0.36
same,ED50,HLA-A*1101 [15],8.8 µM
same,t1/2,HLA-A*1101 [16],0.7
same,ED50,HLA-A*2402 [3],6.2 µM
same,t1/2,HLA-A*2402 [4],1.65
same,iScore,HLA-A*0301 [24],0.048
same,iScore,HLA-A*1101 [17],0.146
same,iScore,HLA-A*2402 [7],0.165
